Test results as given in doi:10.1101/2023.03.02.530905 (bioRxiv, 2023).

Target: the molecule itself
Experiment: cross-linking

| Protein | stoichiometry N |
| --- | --- |
| GM130 N122-oDi-his (other) MWPPRFPPPRPGMSEETRQSKLAAAKKKLREYQQKNSPGVPAGAKKKKKIKNGHSPERTSASDCQSAENVPTDHTAPAPPSTAAATMFLGVVPSPDADLIQSHDAGNCSNLMEETKTFSSTEGEIAALKQEIAALKKENAALKFEIAALKQG | 2 |
| GM130 N122-oTet-his (other) MWPPRFPPPRPGMSEETRQSKLAAAKKKLREYQQKNSPGVPAGAKKKKKIKNGHSPERTSASDCQSAENVPTDHTAPAPPSTAAATMFLGVVPSPDADLIQSHDAGNCSNLMEETKTFSSTEGELAAIKQELAAIKKELAAIKWELAAIKQG | 4 |
